{
  "source": "paper PMC2115445",
  "key": {"[1]": {"molecular_target": "human erythrocyte ankyrin (human) (UniProt P16157)", "sequence (P16157 whole entry)": "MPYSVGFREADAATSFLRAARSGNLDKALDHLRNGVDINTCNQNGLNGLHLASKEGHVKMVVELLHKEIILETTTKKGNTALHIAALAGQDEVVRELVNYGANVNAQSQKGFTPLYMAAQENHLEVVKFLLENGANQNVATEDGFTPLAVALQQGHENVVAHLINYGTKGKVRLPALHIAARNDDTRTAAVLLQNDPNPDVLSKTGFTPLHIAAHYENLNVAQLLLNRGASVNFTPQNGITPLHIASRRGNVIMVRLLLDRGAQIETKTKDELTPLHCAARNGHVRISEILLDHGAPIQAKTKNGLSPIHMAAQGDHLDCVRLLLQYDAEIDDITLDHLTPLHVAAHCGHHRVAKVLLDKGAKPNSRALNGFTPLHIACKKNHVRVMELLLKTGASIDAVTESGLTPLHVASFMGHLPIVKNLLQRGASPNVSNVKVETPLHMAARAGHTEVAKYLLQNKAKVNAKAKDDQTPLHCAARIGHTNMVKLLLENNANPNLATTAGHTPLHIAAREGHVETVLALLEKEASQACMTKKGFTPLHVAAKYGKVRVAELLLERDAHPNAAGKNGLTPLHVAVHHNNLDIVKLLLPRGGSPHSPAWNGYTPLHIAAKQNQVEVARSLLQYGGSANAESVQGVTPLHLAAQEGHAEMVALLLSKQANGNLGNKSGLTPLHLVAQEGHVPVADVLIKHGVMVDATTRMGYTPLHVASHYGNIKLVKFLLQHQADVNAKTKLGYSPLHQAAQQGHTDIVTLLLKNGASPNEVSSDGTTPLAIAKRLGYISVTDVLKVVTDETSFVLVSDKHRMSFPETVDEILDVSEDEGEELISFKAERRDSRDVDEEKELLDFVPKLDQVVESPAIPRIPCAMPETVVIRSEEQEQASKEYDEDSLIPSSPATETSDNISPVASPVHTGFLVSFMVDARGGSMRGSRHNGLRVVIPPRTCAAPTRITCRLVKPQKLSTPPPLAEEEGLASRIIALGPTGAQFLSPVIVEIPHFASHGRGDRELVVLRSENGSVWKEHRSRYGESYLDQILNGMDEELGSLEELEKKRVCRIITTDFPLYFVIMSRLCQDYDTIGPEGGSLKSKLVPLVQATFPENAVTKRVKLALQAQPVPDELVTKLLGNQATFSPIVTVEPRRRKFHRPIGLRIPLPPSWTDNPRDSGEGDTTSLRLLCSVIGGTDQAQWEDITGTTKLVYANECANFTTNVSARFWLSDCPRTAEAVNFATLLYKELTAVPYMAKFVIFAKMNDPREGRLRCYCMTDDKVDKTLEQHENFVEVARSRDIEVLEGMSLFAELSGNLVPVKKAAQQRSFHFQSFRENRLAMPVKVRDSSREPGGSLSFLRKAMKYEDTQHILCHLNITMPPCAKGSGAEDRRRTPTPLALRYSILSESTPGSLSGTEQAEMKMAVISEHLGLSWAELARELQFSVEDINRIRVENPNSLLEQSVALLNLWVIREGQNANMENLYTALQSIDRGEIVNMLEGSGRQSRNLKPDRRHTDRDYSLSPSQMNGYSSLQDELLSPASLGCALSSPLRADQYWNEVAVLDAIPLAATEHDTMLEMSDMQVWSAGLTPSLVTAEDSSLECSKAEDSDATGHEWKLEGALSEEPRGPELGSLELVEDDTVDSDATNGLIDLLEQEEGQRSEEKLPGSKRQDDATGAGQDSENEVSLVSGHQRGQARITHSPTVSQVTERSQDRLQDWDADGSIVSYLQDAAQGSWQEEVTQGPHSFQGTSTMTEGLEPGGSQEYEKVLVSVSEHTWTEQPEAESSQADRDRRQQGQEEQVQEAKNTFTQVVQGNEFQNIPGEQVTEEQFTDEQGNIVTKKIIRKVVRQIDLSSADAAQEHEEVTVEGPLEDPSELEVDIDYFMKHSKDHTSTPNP", "assay": "co-sedimentation"}, "[2]": {"molecular_target": "human erythrocyte ankyrin (human) (UniProt P16157)", "assay": "pull-down"}, "[3]": {"molecular_target": "Na,K-ATPase (alpha-beta heterodimer) of dog kidney membranes (dog (endogenous in canine kidney)) (UniProt P50997)", "assay": "co-sedimentation"}},
  "note": "Several values for one entry are separate records, joined by “and”; a condition that tells them apart may be missing. Identical values can stand only once.",
  "data": [
    {"substance": "43-kD cytoplasmic domain of human erythrocyte band 3 (domain or fragment)", "values": [
      {"measurement": "Ki", "setting": "[1]", "value": 3.5, "unit": "µM"}
    ]},
    {"substance": "Na,K-ATPase (alpha-beta heterodimer) of dog kidney membranes (from UniProt P50997 1-1021; P06583 1-303) (complex)", "values": [
      {"measurement": "fold bound to immobilized ankyrin against immobilized BSA", "setting": "[2]", "value": 17, "unit": "fold"}
    ]},
    {"substance": "human erythrocyte ankyrin (from UniProt P16157 1-1881) (natural protein)", "values": [
      {"measurement": "Kd", "setting": "[3]", "value": "2.59 µM and 2.57 µM"},
      {"measurement": "stoichiometry N (molecules of Na,K-ATPase per ankyrin)", "setting": "[3]", "value": "3.5 to 4.8"},
      {"measurement": "stoichiometry N", "setting": "[3]; scale: molecules of Na,K-ATPase alpha-beta heterodimer per ankyrin", "value": "2.93 and 5.05"}
    ]}
  ]
}
